Patent US20110097340A1 (SCHERING, published 2011)
Numbering of substitutions follows the chain as printed.

Legend:
human VEGF165 [1] = molecular target: T1, human VEGF165 (human, UniProt P15692 207-395); assay: Biacore, IgG2 (summary table); lower end of the range of IgG2 Biacore results
T1 construct: Recombinant (R&D Systems 293-VE; sf21- or HEK 293-expressed depending on the assay); Biotinylated in the DELFIA assay; also called hVEGF165; rHu-VEGF165
Protocol: (§1) Dilution and running buffer for these experiments was HBS-EP (Biacore) with 1:50 dilution of Chemiblocker® (Chemicon). […] Antibody concentrations were approximately 0.5 μg/ml. hVEGF₁₆₅ expressed from sf21 cells was injected over five minutes at 30 μl/minute using the Kinject feature with 15 minute dissociation over fc1 and 2. […] Regenerations were performed with two injections of 100 mM HCl at 50 μl/minutes for twelve seconds each. Data was processed in Scrubber2 and fit by a 1:1 Langmuir interaction model after double referencing of the control flow cell and blank injections.

human VEGF165 [2] = molecular target: T1, human VEGF165; assay: Biacore competition, inhibition of hVEGF165 binding to immobilized VEGF-R1
Protocol: (§2) VEGF receptor (R&D Systems) was immobilized on the CM5 chip at a density of approximately […] via amine coupling (Biacore). VEGF-R2 was immobilized on fc2 and VEGF-R1 was immobilized on fc4. Flow cells 1 and 3 served as references, and were activated and blocked in the same manner as the receptor immobilized flow cells. […] Samples were incubated for at least one hour prior to initiation of the Biacore analysis run. […] Samples were injected at 10 μl/minute for 1.5 minutes over all flow cells.
(§3) For data analysis, the slope of a linear portion of association (30 seconds to one minute) of the association phase was determined with a linear fit. […] Data was plotted in GraphPad Prism and fit with a sigmoidal dose response curve to calculate the EC₅₀.

murine VEGF165 [3] = molecular target: T2, murine VEGF165 (murine, UniProt Q00731-2 27-190); assay: Biacore 2000, mVEGF165 amine-coupled on C1 chip, antibody injected
T2 construct: also called mVEGF165; rMu-VEGF165
T2 sequence (looked up): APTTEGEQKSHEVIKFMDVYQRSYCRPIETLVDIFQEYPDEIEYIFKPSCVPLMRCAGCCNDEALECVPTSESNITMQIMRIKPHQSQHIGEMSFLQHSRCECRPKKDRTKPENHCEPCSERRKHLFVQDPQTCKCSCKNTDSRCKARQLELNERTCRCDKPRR
Protocol: (§4) The VEGF binding affinity of these IgGs was tested on a Biacore 2000® by injecting the antibodies over a very low density antigen surface. Human or murine VEGF₁₆₅ was immobilized via standard amine coupling methods to flow cells on a C1 (planar carboxy surface) chip. Approximately 85 RU of each antigen was immobilized and a reference flow cell was activated and blocked. Antibodies were injected over the chip surface for 400 seconds at two different concentrations, after which dissociation was monitored. Data was analyzed by Scrubber® using double referencing and fitting with a 1:1 interaction. Regenerations were performed with 90 mM HCl with 500 mM NaCl.

human VEGF165 [4] = molecular target: T1, human VEGF165; assay: Biacore competition, inhibition of hVEGF165 binding to immobilized VEGF-R2
Protocol: as §2, §3

murine VEGF165 [5] = molecular target: T2, murine VEGF165; assay: sandwich ELISA, antibody coated; epitope ELISA, fold over CHO background: at background, no binding seen
Protocol: (§5) The plate was blocked with 30% ChemiBlock™ reagent (Millipore) in PBS for one hour at room temperature, and 30, 60, or 100 μl of CHO-K1 culture supernatant for each mutant, or 1 μg/ml of wild-type hVEGF₁₂₁, recombinant hVEGF₁₆₅, or recombinant mVEGF₁₆₅, was added to appropriate wells. After one hour of incubation, the plate was washed and incubated with a biotinylated goat polyclonal anti-VEGF antibody for one hour at room temperature. Detection was performed with HRP-conjugated streptavidin, followed by TMB chromogenic substrate (Calbiochem) using manufacturer protocol.

human VEGF165 [6] = molecular target: T1, human VEGF165; assay: cell-based or functional assay
Target sequence in this assay (P15692 other isoform, or with tags, fused parts or gaps limits assumed): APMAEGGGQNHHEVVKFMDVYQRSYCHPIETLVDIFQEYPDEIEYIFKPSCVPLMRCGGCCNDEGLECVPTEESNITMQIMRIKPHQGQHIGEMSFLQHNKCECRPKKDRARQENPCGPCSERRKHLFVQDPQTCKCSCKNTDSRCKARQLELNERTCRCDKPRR

human VEGF165 [7] = molecular target: T1, human VEGF165; assay: cell-based or functional assay; remark: listed apart in the source
human VEGF165 [8] = molecular target: T1, human VEGF165; assay: Biacore 2000, hVEGF165 amine-coupled on C1 chip, antibody injected, 1:1 fit
Protocol: as §4
Target sequence in this assay (P15692 other isoform, or with tags, fused parts or gaps limits assumed): as above

hVEGF121-M81A = molecular target: T3, hVEGF121-M81A (human, UniProt P15692-9 27-147); assay: sandwich ELISA, antibody coated
T3 construct: Transiently expressed in CHO-K1 cells; culture supernatant used
T3 sequence (looked up): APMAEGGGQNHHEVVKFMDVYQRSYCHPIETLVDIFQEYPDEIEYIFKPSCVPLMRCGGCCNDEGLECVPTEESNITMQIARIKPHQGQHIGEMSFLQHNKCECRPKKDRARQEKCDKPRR
Protocol: (§6) Mutants were transiently expressed in CHO-K1 cells, and cell supernatants were collected for binding analysis by ELISA.
as §5

hVEGF121-Q89A = molecular target: T4, hVEGF121-Q89A (human, UniProt P15692-9 27-147, Q89A); assay: sandwich ELISA, antibody coated
T4 construct: Transiently expressed in CHO-K1 cells; culture supernatant used
T4 sequence (looked up): T3 sequence (looked up) with A81M, Q89A
Protocol: as §6, §5

hVEGF121-G92A = molecular target: T5, hVEGF121-G92A (human, UniProt P15692-9 27-147, G92A); assay: sandwich ELISA, antibody coated
T5 construct: Transiently expressed in CHO-K1 cells; culture supernatant used
T5 sequence (looked up): T3 sequence (looked up) with A81M, G92A
Protocol: as §6, §5

human VEGF165 [9] = molecular target: T1, human VEGF165; assay: sandwich ELISA, antibody coated
Protocol: as §6, §5

wild-type hVEGF121 = molecular target: T6, wild-type hVEGF121 (human, UniProt P15692-9 27-147); assay: sandwich ELISA, antibody coated
T6 sequence (looked up): T3 sequence (looked up) with A81M
Protocol: as §6, §5

hVEGF121-G88S [10] = molecular target: T7, hVEGF121-G88S (human, UniProt P15692-9 27-147, G88S); assay: sandwich ELISA, antibody coated
T7 construct: Transiently expressed in CHO-K1 cells; culture supernatant used
T7 sequence (looked up): T3 sequence (looked up) with A81M, G88S
Protocol: as §6, §5

human VEGF165 [11] = molecular target: T1, human VEGF165; assay: cell-based or functional assay; remark: listed apart in the source
human VEGF165 [12] = molecular target: T1, human VEGF165; assay: Biacore 2000, IgG2 captured on Protein A/G, hVEGF165 injected, 1:1 fit
Protocol: as §1

murine VEGF165 [13] = molecular target: T2, murine VEGF165; assay: Biacore; IgG2, Biacore: weak binding, KD >100 nM
hVEGF121-G88S [14] = molecular target: T7, hVEGF121-G88S; assay: sandwich ELISA, antibody coated, CHO-K1 supernatant
human VEGF165 [15] = molecular target: T1, human VEGF165; assay: Biacore, IgG2 (summary table)
Protocol: as §1

B1: XPA.10.064 IgG2 (antibody, V domains shown)
VH: EVQLVQSGAEVRKPGASVKVSCKASGYSFTGHYIHWVRQAPGQGLEWMGWINPYSGGTNFPREFQGRVTMTRDTSVNTVYMELTRLTSDDTSVYYCARDHRIVGGLDYWGQGTLVTVSS
VL: SYVLTQPPSASGTPGQRVTISCSGSSSNIGINYVYWYQQLPGTAPKLLIYRNDQRPSGVPDRFSGSKSGTSASLAISGLRSEDEADYYCATWDDSLSGVVFGGGTKVTVL
notes: Converted to IgG with gamma-2 heavy chain constant region; Expressed in 293E cells; also called parental XPA.10.064; VPA.10.064
Kd (human VEGF165 [1]): 1.24 to 1.71 nM
EC50 (human VEGF165 [2]): 0.159 µg/mL
Kd (murine VEGF165 [3]): 197 nM
EC50 (human VEGF165 [4]): 0.129 µg/mL
fold binding over CHO background (murine VEGF165 [5]): 0.7 fold
HUVEC proliferation, geometric mean IC50 (human VEGF165 [6]): 1.32 nM
HPP: sf21-hVEGF165, IgG2 (IC50) (human VEGF165 [7]): 0.15 µg/mL
Kd (human VEGF165 [8]): 1.71 nM
koff (human VEGF165 [8]): 0.000335 s⁻¹
kon (human VEGF165 [8]): 193000 M⁻¹ s⁻¹
Raw data (ELISA signal) (hVEGF121-M81A): 0.868
fold binding over CHO background (hVEGF121-M81A): 9.5 fold
Raw data (ELISA signal) (hVEGF121-Q89A): 0.319
fold binding over CHO background (hVEGF121-Q89A): 3.5 fold
Raw data (ELISA signal) (hVEGF121-G92A): 2.08
fold binding over CHO background (hVEGF121-G92A): 22.8 fold
Raw data (ELISA signal) (human VEGF165 [9]): 2.09
fold binding over CHO background (human VEGF165 [9]): 23 fold
Raw data (ELISA signal) (wild-type hVEGF121): 2.65
fold binding over CHO background (wild-type hVEGF121): 29.1 fold
Raw data (ELISA signal) (hVEGF121-G88S [10]): 0.0778
fold binding over CHO background (hVEGF121-G88S [10]): 0.9 fold
Inhibition of HUVEC proliferation, EC50 (µg/ml), HEK 293 hVEGF165 (human VEGF165 [11]): 0.66 µg/mL
Kd (human VEGF165 [12]): 1.24 nM
koff (human VEGF165 [12]): 0.000286 s⁻¹
kon (human VEGF165 [12]): 230000 M⁻¹ s⁻¹
Kd (murine VEGF165 [13]): > 100 nM
binding result (hVEGF121-G88S [14]): no binding

B2: XPA.10.072 IgG2 (antibody, V domains shown)
VH: B1 VH with E1R, V2L, V37A
VL: B1 VL with S1Q, Y2S, I29L, I31S, Y33F, D53H, T91S, S97R, G98V, V107L
notes: IgG2 (gamma-2 constant region); also called XPA.072; VPA.10.072
EC50 (human VEGF165 [2]): 0.121 µg/mL
EC50 (human VEGF165 [4]): 0.173 µg/mL
fold binding over CHO background (murine VEGF165 [5]): 1.1 fold
Kd (human VEGF165 [15]): 1.66 to 1.7 nM
HPP: sf21-hVEGF165, IgG2 (IC50) (human VEGF165 [7]): 0.24 µg/mL
HUVEC Proliferation Potency (HPP): HEK293-hVEGF165, IgG2 (IC50) (human VEGF165 [7]): 0.68 µg/mL
Raw data (ELISA signal) (hVEGF121-M81A): 1.22
fold binding over CHO background (hVEGF121-M81A): 13.4 fold
Raw data (ELISA signal) (hVEGF121-Q89A): 0.296
fold binding over CHO background (hVEGF121-Q89A): 3.3 fold
Raw data (ELISA signal) (hVEGF121-G92A): 2.78
fold binding over CHO background (hVEGF121-G92A): 30.5 fold
Raw data (ELISA signal) (human VEGF165 [9]): 2.66
fold binding over CHO background (human VEGF165 [9]): 29.2 fold
Raw data (ELISA signal) (wild-type hVEGF121): 2.9
fold binding over CHO background (wild-type hVEGF121): 31.8 fold
Raw data (ELISA signal) (hVEGF121-G88S [10]): 0.0951
fold binding over CHO background (hVEGF121-G88S [10]): 1 fold
Inhibition of HUVEC proliferation, EC50 (µg/ml), HEK 293 hVEGF165 (human VEGF165 [11]): 0.68 µg/mL
Kd (human VEGF165 [12]): 1.66 nM
koff (human VEGF165 [12]): 0.000279 s⁻¹
kon (human VEGF165 [12]): 168000 M⁻¹ s⁻¹
Kd (murine VEGF165 [13]): > 100 nM
binding result (hVEGF121-G88S [14]): no binding
